The assay addresses His-DnaNCg (Corynebacterium glutamicum sliding clamp, beta-clamp), purified (Corynebacterium glutamicum). Nature of the assay: BLI.

The term Kd denotes the free concentration of one partner at which half of the binding sites on the other are occupied at equilibrium, for simple one-to-one binding. Low values mean tighter binding, high ones weaker binding. “EndoMSCg (Corynebacterium glutamicum EndoMS/NucS), wild type, purified untagged protein (enzyme)”: the dissociation constant Kd was 185 nM.
With EndoMSCg D144A mutant protein (enzyme), the Kd is 182 nM.

Values taken from PMC6159521.
